Series [1] concerns QAg mutant with tyrosine 450 changed to phenylalanine.
The subject of series [2] is QAg mutant with tyrosine 497 changed to phenylalanine.
The subject of series [3] is QAg mutant with tyrosine 463 changed to phenylalanine.
The test system of series [4] is QAg, hexahistidine fusion protein of the carboxy-terminal 62 amino acids of Rak.
The test system of series [5] is QAg mutant with tyrosine 490 changed to phenylalanine.

Sequence of p50^csk, cytoplasmic tyrosine kinase CSK purified from baculovirus-infected insect cells (P41240 whole entry): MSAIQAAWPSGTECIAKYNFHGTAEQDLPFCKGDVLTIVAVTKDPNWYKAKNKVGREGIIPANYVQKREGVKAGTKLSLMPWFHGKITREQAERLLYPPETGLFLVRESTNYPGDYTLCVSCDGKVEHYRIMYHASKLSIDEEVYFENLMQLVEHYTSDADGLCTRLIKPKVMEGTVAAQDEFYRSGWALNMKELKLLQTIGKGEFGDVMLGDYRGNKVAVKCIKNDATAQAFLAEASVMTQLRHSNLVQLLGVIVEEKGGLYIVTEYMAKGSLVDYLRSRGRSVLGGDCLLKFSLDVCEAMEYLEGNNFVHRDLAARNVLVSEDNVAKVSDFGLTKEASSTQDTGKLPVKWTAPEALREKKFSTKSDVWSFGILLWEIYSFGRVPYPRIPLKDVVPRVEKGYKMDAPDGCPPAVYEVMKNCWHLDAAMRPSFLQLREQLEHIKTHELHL

Take “p50^csk, cytoplasmic tyrosine kinase CSK purified from baculovirus-infected insect cells”: the phosphorylation by CSK (in vitro kinase assay) (fraction of wild-type peptide) in series [1] and in series [5] was 0.5 each time. Besides, the “phosphorylation by CSK (in vitro kinase assay)” value in series [2] was “Phosphorylation of the 497 mutant, however, was barely detectable”; in series [3], “The mutant at position 463 was phosphorylated at levels equivalent to the wild-type peptide”; in series [4], “This peptide was readily phosphorylated by CSK”.

(Values after US6531296.)
